Values of other authors in paper PMC9843440.

Target: IκBα (Homo sapiens) (UniProt P25963)
Chain of UniProt P25963 (P25963 whole entry): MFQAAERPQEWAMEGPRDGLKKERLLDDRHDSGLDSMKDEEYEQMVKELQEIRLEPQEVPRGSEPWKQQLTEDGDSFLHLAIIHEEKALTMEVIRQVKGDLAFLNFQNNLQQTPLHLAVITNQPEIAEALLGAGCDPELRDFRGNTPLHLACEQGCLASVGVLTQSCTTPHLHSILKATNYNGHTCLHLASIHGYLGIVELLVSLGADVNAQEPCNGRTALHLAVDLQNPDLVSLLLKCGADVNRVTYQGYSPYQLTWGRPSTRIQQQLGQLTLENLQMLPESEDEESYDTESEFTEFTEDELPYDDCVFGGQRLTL

Kd: 56 nM
Substance: IKKβ (from UniProt O14920)
